Measurements from patent US20250026820A1 (WUHAN YZY BIOPHARMA, published 2025).

T1: TGFβ2 protein (GenScript Z03429) (human, UniProt P61812 303-414)
T1 construct: also called human TGF-β2
T1 sequence (looked up): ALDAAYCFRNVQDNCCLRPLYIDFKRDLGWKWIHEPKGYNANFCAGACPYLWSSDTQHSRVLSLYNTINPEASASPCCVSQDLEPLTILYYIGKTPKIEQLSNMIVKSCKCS

T2: TGFβ3 protein (GenScript Z03430) (human, UniProt P10600 301-412)
T2 construct: also called human TGF-β3
T2 sequence (looked up): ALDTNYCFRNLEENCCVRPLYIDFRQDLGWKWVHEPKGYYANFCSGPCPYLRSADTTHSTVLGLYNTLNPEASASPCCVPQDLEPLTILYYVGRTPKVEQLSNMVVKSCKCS


How the values were obtained:
[1] = target: T3, TGFβ1 protein (GenScript Z03411) (human, UniProt P01137 279-390); assay: ELISA; plate coated with TGFβ1; E. coli supernatant; HRP anti-VHH
T3 construct: also called human TGF-β1; TGFβ1 antigen
Experimental: A microplate was coated with 2 μL/well of the TGFβ1 protein solution and BSA, respectively, at 4° C. overnight; the supernatant was discarded, 300 μL of a blocking solution (PBS containing 3% BSA) was added to each well, and the plate was blocked at 37° C. for 2 h; the supernatant collected by centrifugation was added to the well of the microplate at 200 μL per well, the plate was left to stand and incubated at room temperature for 2 h, and the supernatant was discarded; the plate was washed for 3 times with 200 μL/well PBST (PBS containing 0.1% Tween 20); a diluted HRP-labeled anti-VHH secondary antibody (Genscript, A01861) was added, the secondary antibody was used after a 1:10000 dilution, the diluent was PBS containing 1% BSA, the volume was 100 μL/well, and the plate was incubated at room temperature for 1 h; the plate was washed for 5 times with 200 μL/well PBST; a TMB chromogenic solution (BD, 55214) was added at 100 μL/well for color development at 37° C. for 8 min. 2 M HCl stop solution was added at 100 μL/well. After the addition of the stop solution, the 450 nm values were read using a microplate reader within 30 min.

BSA = BSA (UniProt P02769); assay: ELISA; plate coated with BSA (control); E. coli supernatant; HRP anti-VHH
[2] = target: T1, TGFβ2 protein (GenScript Z03429); assay: ELISA; plate coated with human TGF-β2; antibody titrated; HRP anti-human Fc
Experimental: (§1) A microplate was coated with 2 μL/well of the human TGF-β1/2/3 protein solution, respectively, at 4° C. overnight; the supernatant was discarded, 300 μL of a blocking solution (PBS containing 3% BSA) was added to each well, and the plate was blocked at 37° C. for 2 h; the antibodies were gradiently diluted, and the diluent was PBS containing 1% BSA. For example, the initial concentration of the antibody dilution was 500 nM, and diluted 10-fold to obtain 8 concentration gradients. The diluted antibody was added to the well of the microplate at 200 μL per well, the plate was left to stand and incubated at room temperature for 2 h, and the supernatant was discarded; the plate was washed for 3 times with 200 μL/well PBST (PBS containing 0.1% Tween 20); a diluted HRP-labeled anti-human Fc secondary antibody (SIGMA, A8667) was added, the secondary antibody was used after a 1:20000 dilution, the diluent was PBS containing 1% BSA, the volume was 100 μL/well, and the plate was incubated at room temperature for 1 h; the plate was washed for 5 times with 200 μL/well PBST; a TMB chromogenic solution (BD, 55214) was added at 100 μL/well for color development at 37° C. for 8 min. 2 M HCl stop solution was added at 100 μL/well. After the addition of the stop solution, the 450 nm values were read using a microplate reader within 30 min. Data were analyzed using GraphPad Prism 6.0 software and avidity fitting was performed to give EC50 values.

[3] = target: T2, TGFβ3 protein (GenScript Z03430); assay: ELISA; plate coated with human TGF-β3; antibody titrated; HRP anti-human Fc
Experimental: as §1

[4] = target: T3, TGFβ1 protein (GenScript Z03411); assay: ELISA; plate coated with human TGF-β1; antibody titrated; HRP anti-human Fc
Experimental: as §1

T3 sequence (P01137 279-390 limits assumed, one chain of several): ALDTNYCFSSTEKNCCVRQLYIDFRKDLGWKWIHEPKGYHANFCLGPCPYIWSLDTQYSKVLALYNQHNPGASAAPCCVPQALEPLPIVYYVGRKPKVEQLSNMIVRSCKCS
Sequence of BSA (P02769 25-607 limits assumed): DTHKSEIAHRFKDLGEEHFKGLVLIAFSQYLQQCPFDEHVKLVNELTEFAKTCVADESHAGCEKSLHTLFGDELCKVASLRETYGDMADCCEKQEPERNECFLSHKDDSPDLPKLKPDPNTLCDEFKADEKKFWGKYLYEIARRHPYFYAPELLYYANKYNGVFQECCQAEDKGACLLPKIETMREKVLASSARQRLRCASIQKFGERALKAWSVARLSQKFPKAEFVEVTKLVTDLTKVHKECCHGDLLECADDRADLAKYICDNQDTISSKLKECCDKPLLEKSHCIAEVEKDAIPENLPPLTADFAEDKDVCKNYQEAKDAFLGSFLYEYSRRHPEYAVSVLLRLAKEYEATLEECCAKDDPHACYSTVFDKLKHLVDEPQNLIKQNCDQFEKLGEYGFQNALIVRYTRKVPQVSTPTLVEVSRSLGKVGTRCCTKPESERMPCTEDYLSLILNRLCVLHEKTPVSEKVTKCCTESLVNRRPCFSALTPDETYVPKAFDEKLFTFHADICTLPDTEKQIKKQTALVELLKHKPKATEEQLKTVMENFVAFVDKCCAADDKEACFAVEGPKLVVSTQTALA

Row | Binder | OD value of binding to TGFβ1 [1] | OD value of binding to BSA (BSA) | EC50 [2] | EC50 [3] | EC50 [4]
1 | B2H1 heavy chain single-domain antibody (VHH, Tested as crude supernatant of IPTG-induced E. coli TG1 carrying the pComb3XSS clone) VHH: QLQLVESGGGLVQPGESLRLSCAASGIIFSASTMAWFRQAPGKQRELVALITDGDRTNYADSVKGRFTISRDNAENTVYLQMTELKFEDTAVYYCNAFWLKAYWGQGTQVTVSS | 2.06 OD 450 nm | 0.057 OD 450 nm | – | – | –
2 | B2F6 anti-TGFβ single domain heavy-chain antibody (variable region, linker peptide, human IgG1 heavy chain constant region) (Fc fusion, not shown: linker peptide (GGGGS)n, n=1, 2 or 3; human IgG1 heavy chain constant region, GenBank No. AK303185.1) heavy: EVQLVESGGGLVQPGGSLRLSCAASGFTFSYYVASWYRQAPGKERELVATTFPPDGSPHYADSVKGRFAISRDNAKNTVFLQMDSLKSEDTAVYYCNARRVEGHGIYWGQGTQVTVSS | – | – | 0.774 nM | 1.03 nM | –
3 | B1B8 heavy chain single-domain antibody (VHH, Tested as crude supernatant of IPTG-induced E. coli TG1 carrying the pComb3XSS clone) VHH: EVQVVESGGGLVQPGGSLTLSCVASGFAFSFTPMRWVRQAPGKGLEWVSSISIRGDTTDYADSVKGRFTISRDNAKNTLYLQMNSLKPEDTAVYYCSRGSSISTSTERTQGTQVTVSS | 1.92 OD 450 nm | 0.063 OD 450 nm | – | – | –
4 | B1C5 heavy chain single-domain antibody (VHH, Tested as crude supernatant of IPTG-induced E. coli TG1 carrying the pComb3XSS clone) VHH: EVQLVESGGGEVRPGGSLRLSCVVSGFTKDYGAIGWFRQAPGQEREGLGCIARKDGDTWSADSVKGRFTISRDNVRNTVYLQMNALKPEDRGVYYCAGDPSALYGCSDRSSEYQYWGQGTQVTVSS | 2.08 OD 450 nm | 0.052 OD 450 nm | – | – | –
5 | B1F8 heavy chain single-domain antibody (VHH, Tested as crude supernatant of IPTG-induced E. coli TG1 carrying the pComb3XSS clone; also called BIF8) VHH: QVQLVESGGGLVQPGGSLRLSCAASGSIFGVFYMGWFRQAPGKQREMVAISTDDRTSYVDSVKGRFTISRDNAKNTLALQMNSLKPEDTAVYFCNLNQLGTDYWGPGTQVTVSS | 1.03 OD 450 nm | 0.07 OD 450 nm | – | – | –
6 | B3F1 heavy chain single-domain antibody (VHH) VHH: QLQLVESGGGLVQPGGSLTLSCAASGFTFSLYPMSWVRQAPGKGLEWVSVIGSDGGTKHYSDSVKGRFAISRDNAKNTLYLQMNSLKPEDTAVYYCAEGDSRYVRGRTRGQGTQVTVSS | – | 0.051 OD 450 nm | – | – | –
7 | B3F1 anti-TGFβ single domain heavy-chain antibody (variable region, linker peptide, human IgG1 heavy chain constant region) (Fc fusion, not shown: linker peptide (GGGGS)n, n=1, 2 or 3; human IgG1 heavy chain constant region, GenBank No. AK303185.1) heavy: QLQLVESGGGLVQPGGSLTLSCAASGFTFSLYPMSWVRQAPGKGLEWVSVIGSDGGTKHYSDSVKGRFAISRDNAKNTLYLQMNSLKPEDTAVYYCAEGDSRYVRGRTRGQGTQVTVSS | – | – | 148 nM | 1.33 nM | –
8 | B3C5 anti-TGFβ single domain heavy-chain antibody (variable region, linker peptide, human IgG1 heavy chain constant region) (Fc fusion, not shown: linker peptide (GGGGS)n, n=1, 2 or 3; human IgG1 heavy chain constant region, GenBank No. AK303185.1) heavy: QLQLVESGGGLVQPGGSLTLSCAASGFTFSHYPMSWVRQAPGKGLEWVSVIGSDGGTKIYSDSVKGRFAIARDNAKNTLYLQMNSLKPEDTAVYYCAEGDSRYVRGRTRGQGTQVTVSS | – | – | 3.52 nM | 1.35 nM | –
9 | B2A1 heavy chain single-domain antibody (VHH, Tested as crude supernatant of IPTG-induced E. coli TG1 carrying the pComb3XSS clone) VHH: QVQLVESGGGLVQPGGSLRLSCAASGITFSHYDMAWFRQAPEKQRELVALITSGGKTAYADSVKGRFAISRDNAKNTVYLQMNSLKAGDTAVYYCNAHWVLTSQYWGQGTQVTVSS | 1.29 OD 450 nm | 0.057 OD 450 nm | – | – | –
10 | B2A1 anti-TGFβ single domain heavy-chain antibody (variable region, linker peptide, human IgG1 heavy chain constant region) (Fc fusion, not shown: linker peptide (GGGGS)n, n=1, 2 or 3; human IgG1 heavy chain constant region, GenBank No. AK303185.1) heavy: QVQLVESGGGLVQPGGSLRLSCAASGITFSHYDMAWFRQAPEKQRELVALITSGGKTAYADSVKGRFAISRDNAKNTVYLQMNSLKAGDTAVYYCNAHWVLTSQYWGQGTQVTVSS | – | – | 1.07 nM | 1.25 nM | 3.82 nM
11 | B2A9 heavy chain single-domain antibody (VHH, Tested as crude supernatant of IPTG-induced E. coli TG1 carrying the pComb3XSS clone) VHH: QLQLVESGGGLVQPGGSLRLSCTASGSTFEIYPIYAMAWFRQTPGKQRELVALTTDVKTNYADSVKGRFTISRDNAKNTVYLQMNMLQPEDTAVYVCNVGVVRGGLQNYWGQGTQVTVSS | 1.92 OD 450 nm | 0.061 OD 450 nm | – | – | –

The remaining lines, values ahead:

Row | OD value of binding to TGFβ1 [1] | OD value of binding to BSA (BSA) | EC50 [2] | EC50 [3] | EC50 [4] | Binder
12 | 2.05 OD 450 nm | 0.058 OD 450 nm | – | – | – | B2C2 heavy chain single-domain antibody (VHH, Tested as crude supernatant of IPTG-induced E. coli TG1 carrying the pComb3XSS clone) VHH: QLQLVESGGGLVQPGGSLRLSCAGSGIAFSRVTMAWSRQAPGKQRELVALITDGNRSAYVDSVKGRFTISRDNTKKTMSLQMNDLKPEDTAVYYCVATDWVPTRRDYWGQGTQVTVSS
13 | 1.69 OD 450 nm | 0.064 OD 450 nm | – | – | – | B2A2 heavy chain single-domain antibody (VHH, Tested as crude supernatant of IPTG-induced E. coli TG1 carrying the pComb3XSS clone) VHH: EVQVVESGGAAVQPGESLRLSCAASGSIFNTATMGWFRQAPGKQREMVAIITDGGRTNYADSVKGRFTISRDATKNTVYLQMNSLNPGDTAVYYCNALTIVPRSSIYWGQGTQVTVSS
14 | – | 0.053 OD 450 nm | – | – | – | B2F6 heavy chain single-domain antibody (VHH) VHH: EVQLVESGGGLVQPGGSLRLSCAASGFTFSYYVASWYRQAPGKERELVATTFPPDGSPHYADSVKGRFAISRDNAKNTVFLQMDSLKSEDTAVYYCNARRVEGHGIYWGQGTQVTVSS
15 | 2.29 OD 450 nm | 0.071 OD 450 nm | – | – | – | B3F3 heavy chain single-domain antibody (VHH, Tested as crude supernatant of IPTG-induced E. coli TG1 carrying the pComb3XSS clone) VHH: QVQLVESGGGLVQPGESLRLSCTASGSIFGVFYMGWFRQAPGKQRDMVAISTDDRTSYADSVKGRFTISRDNAKNTLALQMNSLKPEDTAVYFCNLNQLGTDYWGPGTQVTVSS
16 | 1.85 OD 450 nm | 0.064 OD 450 nm | – | – | – | B2G8 heavy chain single-domain antibody (VHH, Tested as crude supernatant of IPTG-induced E. coli TG1 carrying the pComb3XSS clone) VHH: QVQLVESGGGLVQPGGSLRLSCAASGISFSYYDMGWFRQAPGKQRELVAIVTSGGRTNYADSVKGRFTISRETAKSTMYLQMNSLKSEDTGVYYCNAHWIVTTDYWGQGTQVTVAS
17 | 1.99 OD 450 nm | 0.061 OD 450 nm | – | – | – | B3D2 heavy chain single-domain antibody (VHH, Tested as crude supernatant of IPTG-induced E. coli TG1 carrying the pComb3XSS clone) VHH: QLQLVESGGGLVQPGGSLTLSCLASGFTFSHYPMSWVRQAPGKGLEWVSVIGSDGAIKHYSDSVKGRFAISRDNAKNTLYLQMNSLKPEDTAVYYCAEGDSRYVRNRARGQGTQVTVSS
18 | – | 0.051 OD 450 nm | – | – | – | B3C5 heavy chain single-domain antibody (VHH) VHH: QLQLVESGGGLVQPGGSLTLSCAASGFTFSHYPMSWVRQAPGKGLEWVSVIGSDGGTKIYSDSVKGRFAIARDNAKNTLYLQMNSLKPEDTAVYYCAEGDSRYVRGRTRGQGTQVTVSS
19 | 1.65 OD 450 nm | 0.067 OD 450 nm | – | – | – | B3D6 heavy chain single-domain antibody (VHH, Tested as crude supernatant of IPTG-induced E. coli TG1 carrying the pComb3XSS clone) VHH: EVQLVESGGGLVQAGGSLRLSCAASGRSFSSLAVGWFRQPPGKKREIVAAVNWSGTSTYYPDSVKGRFSISRDNTKNTVYLQMNSLKPEDTAVYYCAADPDLRWLKLWGYEYWGQGTQVTVSS
20 | 1.88 OD 450 nm | 0.055 OD 450 nm | – | – | – | B2C9 heavy chain single-domain antibody (VHH, Tested as crude supernatant of IPTG-induced E. coli TG1 carrying the pComb3XSS clone) VHH: EVQVVESGGGLVQPGGSLRLSCAASASVFSWSVMGWFRQAPGKQRELVAISSGDRETYADSVKGRFTISRDNAKNTVYLQMDTLKPEDTAVYFCNAYVPVGESRGDYWGQGTQVTVSS
21 | 1.95 OD 450 nm | 0.067 OD 450 nm | – | – | – | B1B7 heavy chain single-domain antibody (VHH, Tested as crude supernatant of IPTG-induced E. coli TG1 carrying the pComb3XSS clone) VHH: QVQLVESGGGLVQPGGSLTLSCTASGSMFSFYTMGWYRQATGKQRELVAGISLGGETTYAPSVKDRFTISRDNAKNTVYLQMNSLKPEDTALYNCNAYWGEDYWGQGTQVTVSS
